B1: endogenous PDPK1 [not stated (endogenous; cell line of this co-IP not named)] / endogenous PID1 [not stated (endogenous; cell line of this co-IP not named)] (parent)
chain 1: MFSLPLSLPLCEDTAFLPSKCCSSHKTIKQARTLIMIFLASGTHFQTMLKSKLNVLTLKKEPLPAVIFHEPEAIELCTTTPLMKTRTHSGCKVTYLGKVSTTGMQFLSGCTEKPVIELWKKHTLAREDVFPANALLEIRPFQVWLHHLDHKGEATVHMDTFQVARIAYCTADHNVSPNIFAWVYREINDDLSYQMDCHAVECESKLEAKKLAHAMMEAFRKTFHSMKSDGRIHSNSSSEEVSQELESDDG
chain 2: MARTTSQLYDAVPIQSSVVLCSCPSPSMVRTQTESSTPPGIPGGSRQGPAMDGTAAEPRPGAGSLQHAQPPPQPRKKRPEDFKFGKILGEGSFSTVVLARELATSREYAIKILEKRHIIKENKVPYVTRERDVMSRLDHPFFVKLYFTFQDDEKLYFGLSYAKNGELLKYIRKIGSFDETCTRFYTAEIVSALEYLHGKGIIHRDLKPENILLNEDMHIQITDFGTAKVLSPESKQARANSFVGTAQYVSPELLTEKSACKSSDLWALGCIIYQLVAGLPPFRAGNEYLIFQKIIKLEYDFPEKFFPKARDLVEKLLVLDATKRLGCEEMEGYGPLKAHPFFESVTWENLHQQTPPKLTAYLPAMSEDDEDCYGNYDNLLSQFGCMQVSSSSSSHSLSASDTGLPQRSGSNIEQYIHDLDSNSFELDLQFSEDEKRLLLEKQAGGNPWHQFVENNLILKMGPVDKRKGLFARRRQLLLTEGPHLYYVDPVNKVLKGEIPWSQELRPEAKNFKTFFVHTPNRTYYLMDPSGNAHKWCRKIQEVWRQRYQSHPDAAVQ

Variants of: B1
Assay: co-immunoprecipitation (IP: HA, IB: PID1), band densitometry
Conditions: with endogenous PID1 [not stated (endogenous; cell line of this co-IP not named)]; IGF-1 + (insulin -); read off a plot
chain 2 Y9F Y373F Y376F was tested, and the response was 0.06.

Same assay, conditions: with endogenous PID1 [not stated (endogenous; cell line of this co-IP not named)]; insulin + (IGF-1 -); read off a plot
Work on chain 2 Y9F Y373F Y376F yielded a response of 0.06.

Same assay, conditions: with endogenous PID1 [not stated (endogenous; cell line of this co-IP not named)]; no growth factor (IGF-1 -, insulin -); read off a plot
chain 2 Y9F Y373F Y376F was tested, and the response was 0.07.

From paper PMC10147665
